In PMC5308896, “A conformational switch regulates the ubiquitin ligase HUWE1” (eLife, 2017):
Ends that are not written are not given here.

Experiments:
Test in all cases: fluorescence polarisation; apparent KD; constant 1 μM TAMRA-labelled p14ARF (45–64) peptide titrated with HUWE1 protein; 25°C, 20 mM HEPES pH 8.0, 150 mM NaCl, 10% glycerol, 1 mM EDTA, 5 mM DTT; three independent experiments
Details in all cases: both partners purified
HUWE1 (3843–4374) = target: T1, HUWE1 (3843–4374) (human, UniProt Q7Z6Z7 3843-4374)
T1 construct: source: LOBSTR RIL cells, purified (IMAC, gel filtration)
T1 sequence (looked up): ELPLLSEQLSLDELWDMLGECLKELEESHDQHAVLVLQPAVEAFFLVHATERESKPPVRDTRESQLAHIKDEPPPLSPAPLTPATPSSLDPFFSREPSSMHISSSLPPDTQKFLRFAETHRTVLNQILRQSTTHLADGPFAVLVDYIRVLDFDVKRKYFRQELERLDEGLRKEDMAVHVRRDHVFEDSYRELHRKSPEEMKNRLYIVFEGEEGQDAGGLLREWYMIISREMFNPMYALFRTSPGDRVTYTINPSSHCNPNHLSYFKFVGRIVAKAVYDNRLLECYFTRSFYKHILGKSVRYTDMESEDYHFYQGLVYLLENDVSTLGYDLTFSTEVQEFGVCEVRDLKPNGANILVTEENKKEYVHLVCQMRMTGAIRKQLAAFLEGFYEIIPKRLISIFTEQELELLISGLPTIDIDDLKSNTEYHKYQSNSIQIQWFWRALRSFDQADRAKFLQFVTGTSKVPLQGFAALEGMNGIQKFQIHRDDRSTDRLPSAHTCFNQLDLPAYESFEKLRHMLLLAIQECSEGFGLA

HUWE1 (3810–4374) = target: T2, HUWE1 (3810–4374) (human, UniProt Q7Z6Z7 3810-4374)
T2 construct: source: LOBSTR RIL cells, purified (IMAC, gel filtration)
T2 sequence (looked up): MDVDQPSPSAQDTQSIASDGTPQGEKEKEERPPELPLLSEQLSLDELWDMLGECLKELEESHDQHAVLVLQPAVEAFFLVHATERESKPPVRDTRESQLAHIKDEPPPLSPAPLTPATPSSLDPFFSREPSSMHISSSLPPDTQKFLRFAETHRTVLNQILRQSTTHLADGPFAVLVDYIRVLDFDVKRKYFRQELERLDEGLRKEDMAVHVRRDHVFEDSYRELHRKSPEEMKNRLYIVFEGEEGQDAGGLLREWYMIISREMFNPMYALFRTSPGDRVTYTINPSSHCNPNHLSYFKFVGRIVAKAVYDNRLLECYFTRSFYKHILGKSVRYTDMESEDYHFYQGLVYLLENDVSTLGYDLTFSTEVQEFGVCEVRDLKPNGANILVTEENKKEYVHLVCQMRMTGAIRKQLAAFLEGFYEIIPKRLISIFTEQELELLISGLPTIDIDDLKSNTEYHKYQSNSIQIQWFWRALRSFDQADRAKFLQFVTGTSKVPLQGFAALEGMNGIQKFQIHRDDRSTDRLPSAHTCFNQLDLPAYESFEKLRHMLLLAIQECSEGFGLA

HUWE1 (3759–4374) = target: T3, HUWE1 (3759–4374) (human, UniProt Q7Z6Z7 3759-4374)
T3 construct: also called extended C-terminal HUWE1 fragment; source: LOBSTR RIL cells, purified (IMAC, gel filtration)
T3 sequence (looked up): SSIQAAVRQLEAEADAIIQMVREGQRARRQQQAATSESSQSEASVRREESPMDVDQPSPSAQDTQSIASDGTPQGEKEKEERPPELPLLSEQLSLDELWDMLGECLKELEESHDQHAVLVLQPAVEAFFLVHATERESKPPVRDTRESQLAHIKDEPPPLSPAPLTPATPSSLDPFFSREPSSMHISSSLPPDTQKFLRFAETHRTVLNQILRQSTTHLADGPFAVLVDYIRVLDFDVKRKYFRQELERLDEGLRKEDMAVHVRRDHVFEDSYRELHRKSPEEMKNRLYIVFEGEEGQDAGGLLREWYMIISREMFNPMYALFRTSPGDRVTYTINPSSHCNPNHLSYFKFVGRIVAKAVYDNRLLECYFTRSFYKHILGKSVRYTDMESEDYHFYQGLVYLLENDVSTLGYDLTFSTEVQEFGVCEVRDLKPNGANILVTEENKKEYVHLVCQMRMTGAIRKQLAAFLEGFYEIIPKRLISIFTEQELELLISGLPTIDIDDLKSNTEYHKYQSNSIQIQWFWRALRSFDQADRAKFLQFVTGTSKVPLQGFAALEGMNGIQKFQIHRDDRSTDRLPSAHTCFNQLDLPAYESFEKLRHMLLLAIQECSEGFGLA

[1] = target: T4, MBP-tagged activation segment of HUWE1 (residues 3843–3902) (human, UniProt Q7Z6Z7 3843-3902)
T4 construct: pETM41: N-terminal TEV protease-cleavable MBP-tag, C-terminal 3C protease-cleavable His6-tag; source: E. coli BL21(DE3), purified (IMAC, gel filtration); not shown: MBP, N-terminal, kept; His6, C-terminal, kept
T4 sequence (looked up): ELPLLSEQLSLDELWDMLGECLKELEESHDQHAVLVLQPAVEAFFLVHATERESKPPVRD

Kd (HUWE1 (3843–4374)): 5.2 ± 0.2 µM
Kd (HUWE1 (3810–4374)): 6 ± 1 µM
Kd (HUWE1 (3759–4374)): 7.7 ± 0.4 µM
Kd [1]: 3.6 ± 0.2 µM
B1: fluorophor-labeled p14ARF-derived peptide (residues 45–64), TAMRA-labelled (peptide)
peptide: LVLMLLRSQRLGQQPLPRRPK(TAMRA)
notes: p14ARF (alternative reading frame product of CDKN2A), human, residues 45–64; additional lysine residue at the C-terminus that carries the TAMRA label (told in words); also called p14ARF-peptide; p14ARF (45-64); source: synthetic peptide, bought: Elim Biopharm
